The DeepSol protein solubility set

Assay: soluble on expression in E. coli; label from the status in PepcDB or PDB records

| Sequence | soluble on expression in E. coli |
| --- | --- |
| MGSDKIHHHHHHMAQHVIEMREITKKFDDFVANDHINLDLRKGEIHALLGENGAGKSTLMNMLAGLLEPTSGSIKINGSAVTIDSPSKSAQLGIGMVHQHFMLVEAFTVTENIILGNEVVKNGILDLKKAGQEIKALSEKYGLAVDPNAKIADISVGAQQRVEILKTLYRGADILIFDEPTAVLTPSEIQELMTIMKSLVKEGKSIILITHKLDEIRSVADRVTVIRRGKSIETVEVSGTTSQDLAEMMVGRSVSFTIEKTPTKPKETILSIKDLVVNENRGIPAIKGLSLEVKAGEIIGIAGIDGNGQSELVQAITGLRKIKSGHLTIKGQDVTKLSTRKITELSVGHVPEDRHRDGLILELTMAENLALQTYYKAPLSHNGVLNYSKINEHGRHLMQEFDVRGANELIPAKGFSGGNQQKAIIAREVDRDPDLLIVSQPTRGLDVGAIEYIHKRLIAERDEGKAVLLVSFELDEILNLSDRIAVIHDGQIQGIVTPETTNKQELGILMAGGSIEREEINV | not soluble |
| MTCTTEIDILKWTVRYCSSLAAHLLTPTRLFKYEIQQQSDLRNATENKTEKYISDDVGHCRHTYMQIR | soluble |
| MSLEKKFVIWGRNPIIEALRAGRNLEKIYVAHDSHPPKELLELAKKRGVKVQRISRKKVEELAGTKKTQGVVALLSPVNYVSPHELFKECIEKKSFFIVIDHITDPQNVGNLLRTCEVLGGVGALISKDRTSPINETVVKASSGAVFHLKISKVSSLSRELKNFQKMGGWVFAVEKGGKDIREVDIPLPVALVLGSEDKGVSKSVLDISDQIVTIPMKGKVTSLNVGSAGAIAMWETAKKILEGHHHHHH | soluble |
| MTKQPPIAKADLQKTQGNRAPAAVKNSDVISFINQPSMKEQLAAALPRHMTAERMIRIATTEIRKVPALGNCDTMSFVSAIVQCSQLGLEPGSALGHAYLLPFGNKNEKSGKKNVQLIIGYRGMIDLARRSGQIASLSARVVREGDEFSFEFGLDEKLIHRPGENEDAPVTHVYAVARLKDGGTQFEVMTRKQIELVRSLSKAGNNGPWVTHWEEMAKKTAIRRLFKYLPVSIEIQRAVSMDEKEPLTIDPADSSVLTGEYSVIDNSEE | soluble |
| MGSDKIHHHHHHMAFTESDVYNNEAFFEQYMKRRYRENSPNEALEKPAFFQLISDVKGKRILDLGCGDAKFGEELLEKGCHSYTGIEGSELMYEKAKKQLENKNGAVHFLNLKDYTYPPSTFDLVTSRLALHYIEHLPIIFQNVYETLKTNGTFTFSVQHPIITSSFESLQTSGKRTSWLVDDYFKLGKRVEPWIDQEVIKYHRTTEEYFTLLQQAGFTITNLKEATPDQTYFQNAEEYERRLRIPLFLLFSCRK | not soluble |
| MPKEWLAEDLSEQYVADYKAFNFVDGEGVRCSLYLSGCPFHCPGCYNVAAQNFHYGQPYSQELEDQIIEDLGQDYVQGLTLLGGEPFLNTQVGIRICERIRSEFGNTKDIWSWSGYTWEELQQDSEDKLKMLSLIDILVDGRFLQDKMDLSLQFRGSSNQRIIDVPKSLTAGKVVIWDKLVKLEHHHHHH | soluble |
| MSDSQINSRTTIDEYLSRADWRVNANANQDYSLGGMILNAAGKVTANYWLDQVFSPAASAAHREGSIHIHDLDMLSGYCAGWSLRQLLEEGFGGVPGTISSRPPKHFSSACGQIVNFLGTLQNEWAGAQAFSSFDTYMAPFVRLDNLSYDEIVQDMQEFIFNLNVPSRWGTQTPFTNLTFDWTCPADLKDSVPFIGEEPVDFTYGELQEEMDLINRAFIQVMSAGDADGRPFTFPIPTYNITKDFDWDSPNTEALFTMTAKYGLPYFQNFINSDLDPGMIRSMCCRLQLDLRELLKRGNGLFGSAELTGSIGVVTLNCARLGYLYAGDEQALLGAVDELIELGIDTLERRRDFVATHMRQGLYPYSARWLPSLDNHFSTIGVNGCNEMIRNFTHDAYNLTDPQGHAQVARLLDHINARLVQAQERTGHLFNLEATPAEGTTYRLAKEDLKRYPDMLHAGTPEEPYYTNSSQLPVSHTPDPFEALALQEDLQSKYTGGTVLHLYMGAAMSDGKACAALVRRALTNFHLPYITITPTFSICPDHGYISGEHPECPQCGATTEMWTRVMGYFRPVQSFNTGKKGEFHERTYFAEALI | not soluble |
| MGSDKIHHHHHHMNSLPTESPQSKKSLPSTSMLAAFDAAARTGSFTAAAKDLALTQGAISRQVNALEMQISVNLFHRHKQNISLTEAGKTYAKEVNSALSHIRSATLNLMTNPDGGILNIAILPTFGSRWLMPRLADFLAKHPRITINTVCKLSQFDFSHEDIHCAIHFGKADWSQANCTFLMAEESVPVCSPKLFEQAELAKVDNVCARLINLPLLHIATRPNAWQHWFDEHNVDSTTKEQPKKKTLQDMHFEQFSIVTNAAVAGLGVALLPKFLVESELQRGELQVICNKPQRTDNGYYLVTPNDKLNYAPMVAFTRWLSQVIKSEKPSILNK | not soluble |
| MQLRKMQTIKKEPAPLDPTSSSDKMLLLNSALAEVAEDLASGEDLLLNEGSMGKNKSSACRRKREFIPDEKKDAMYWEKRRKNNEAAKRSREKRRLNDLVLENKLIALGEENATLKAELLSLKLKFGLISSTAYAQEIQKLSNSTAVYFQDYQTSKAAVSSFVDEHEPAMVAGSCISVIKHSPQSSLSDVSEVSSVEHTQESPAQGGCRSPENKFPVIKQEPVELESFAREAREERGTYSTSIYQSYMGSSFSTYSHSPPLLQVHGSTSNSPRTSEADEGVVGKSSDGEDEQQVPKGPIHSPVELQRVHATVVKVPEVNPSALPHKLRIKAKAMQVKVEALDSEFEGMQKLSSPADAIAKRHFDLEKHGTSGMAHSSLPPFSVQVTNIQDWSLKSEHWHHKELSSKTQSSFKTGVVEVKDGGYKVSEAENLYLKQGIANLSAEVVSLKRFIATQPISASDSR | not soluble |
| MGSDKIHHHHHHMIPLHTSMRGLRCFCVAAECLSFKETAKRLYLTPSAVSHQIKQLEESLNQSLFIRQTRAVTLTEVGARFYQAIEPVMQQLVNTVSEFNQSDRMLEVSISMPEFFASELFMPKLIGWSSKYPNINLKLETIKSRSDMIKHTDASIMLSGKQQTNADVYDLFPITYIPACNAQLHAELSSQGFKALTQVPLILHKARPYAWHQWAENVGFDAFQPKQIIQLDSMFSVARAAEQGLGIALIPLPISQAWFDNGTLLSLFPHPLFSHDRYYLIRHTNEQQRPEVQLLIDWILKSFHDESH | not soluble |
| GMPSEKQPQSKGNKMAILKLDEHLYISPQLTKADAEQIAQLGIKTIICNRPDREEESQPDFAQIKQWLEQAGVTGFHHQPVTARDIQKHDVETFRQLIGQAEYPVLAYCRTGTRCSLLWGFRRAAEGMPVDEIIRRAQAAGVNLENFRERLDNARV | soluble |
| MGSDKIHHHHHHMNKNMIKGMIVFAAIAEKGSMSAAAQQLNLSSSAVSQQVTKLEMDMGISLFHRNTRNLTLTEAGSLFYENCRKVIAIVESTEQKLNNLKGIPSGELKIAAPIGFGGGLLSEPFNYLLAAHPQISLNLLLQDGPIDIVNEGIDLAICIGPLSDSNLIARHLADWRMLLCASPDYLPMHKIFKHPAELAAFNRINHPCANSETLTHVRNKECFELTSQRITVNNMQALIQLTLDGLGFAALPEPEVHKYLESGQLVTLLPEWSLNTYSVYSVTSARDKQPAKVKEALNTLSQYFSQANFNPAYHFKQCVQKDGTKGSVTNILPIKPKQASHHADVDHAS | not soluble |
| MSSSTSQDFVSRPVIKKVFAKLQKEGDGAVVRRGISRSEQKLLDPFLMLDEFSVSPPAGFPDHPHRGITHQDFKGHKGTIYAGDVQWMTAGRGIIHSEMPEEEVNKEPNYQELSHSDIPKAEQNGVEVKVIAGESMGIQSPVYTRTPTMFLDFTLQPGAQIHQNVPESWNAFAYILESGEGGGVFSSSNSSPIPAHSVVVFGPGNDGVSVWNKSSSKQLRFVLIAGEPIGEPVVQYGPFVMNTQAEIDMTIEDYHYGKNGFEMAKYWRSQ | not soluble |
| RYWQLEVAPRRRADPPEALLELLDRSVTARMQGGPVGSMLSGGLDSGTVSMLASRRSEGPLPVISMKFDDHPEIDESEWIAKIHAAGRFRPVWIDGRDAHGGDVAELLAEQGGPFFAPNLATSRWLYRRAAEAGVEILLDGHGGDEVISFGVARLTELASEAQWRTLWQSTAAVSDLFGGSRREFFLNSMAQGAQSRWLRAMARRLNVGAKRDPRAWRQALHPALVARTGLVQRVQEAAGARKRGATDDIRQHVATLTAPRYPTTLEVLDRAATLCGIEPRYPFLERRLIEHCVAQPAAAKFHDGMTRALLRDAVRGLLPDEVRLRTSKTNFTPNVRARMLTSWGDNLNRIAGCNPGRIGDYVDLAVIREGIQRLRAGEPDQPALLQTMRAVVLDEWLR | not soluble |
| MTTGNNDFYYSNKYEDDEFEYRHVHVTKDVSKLIPKNRLMSETEWRSLGIQQSPGWMHYMIHGPERHVLLFRRPLAATQKTGGNVRSGNAVGVR | not soluble |
| MASFVTSKRDFRARAHSNPLNDAEFLVPEDPLRFDWSPFIPDVGSHPIDYVDLGCGYGGLLCELSIAFPNKYMLGMEIRDRVASYCVTKLEELRRLNSKGYRNIGFIRTNCMKFLPFYFPPSSVEKFFICFPDPHFKKKKHRQRLVSLRFLSEAAYCLRPGGMIYIVTDVEELFAWMTNLFAQHPLFLTMDKELVKQQDVLLPYLLNHTDEAQRMKRRGQDTPYWNVFQRKTVFC | not soluble |
| FPVETVQIPVNDEYAVHGWLAHGMSGHGAVLLVHSMRSNRLEMLGRARFLNNQGYHVLMIDLQAHGETPGDRITFGARESADVAAAVGYLRSTFPHDRIAAIGATLGAAAIVLANPPLKLDAMILESLHPTFAEAVANRLKLHLGNTGEYLQFLLLPYFSFLLDLPVNQLNPVDRIGNIAIPVLFIAGTLDRHTTQSEVKRLYDAALPPKELWIVEGAGHYNMHTFAGKSYEMQIADFLSTYL | not soluble |
| SDRAEVRNIPFKLGMYLTVGGVVNSNATRFSINVGESTDSIAMHMDHRFSYGADQNVLVLNSLVHNVGWQQEERSKKFPFTKGDHFQITITFDTHTFYIQLSNGETVEFPNRNKDAAFNLIYLAGDARLTFVRLE | soluble |
| MAVLAALLRSGARSRSPLLRRLVQEIRYVERSYVSKPTLKEVVIVSATRTPIGSFLGSLSLLPATKLGSIAIQGAIEKAGIPKEEVKEAYMGNVLQGGEGQAPTRQAVLGAGCDGGRWDGEHVHVPYVMNRGSTPYGGVKLEDLIVKDGLTDVYNKIHMGSCAENTAKKLNIARNEQDAYAINSYTRSKAAWEAGKFGNEVIPVTVTVKGQPDVVVKEDEEYKRVDFSKVPKLKTVFQKENGTVTAANASTLNDGAAALVLMTADAAKRLNVTPLARIVGKARRGGSHL | not soluble |
| MGSDKIHHHHHHMKNVVTDPEKVTRILKTATEIFGQQGFIKSKTDQIANQAQVSKGLLFHYFGNKQALYLDAFKYAYHRIYDHMDPKKWQNAPGLAAMMTTAVKYELKLQFKFPAEYRLMMQAYADLPHFPEPLRQQVQQETTAISAEADRIFREKIEQLPRREGLSVDDVFGVVSALIAQQTAVTTRLIASGHYRKFEDLQSVVETMARQLLIVEHGFLPDES | not soluble |
| DMPRPTGLAADIRWTAYGVPHIRAKDERGLGYGIGYAYARDNACLLAEEIVTARGERARYFGSEGKSSAELDNLPSDIFYAWLNQPEALQAFWQAQTPAVRQLLEGYAAGFNRFLREADGKTTSCLGQPWLRAIATDDLLRLTRRLLVEGGVGQFADALVAAAPPGAEKV | soluble |
| MFVVAVANTKGGCGKTTLATHLAASFACRGYATGLADLDRQKSALGWLKRRPEGAAPIQGINLAREEDIPEGIERLVVDAAAAMDKDVVKDIVRRADLVVVPVLPGVFDEDGTARFVGHLESLKSIRKNRRDVAFVANRVRLNTRALTRLGGFLEELSFPVIARLRDTQHYTAAAAEGLSLFDLPGGRAADYRAEWTPLLDFIEIRVRG | soluble |
